Assay [1] concerns the target T1, cynomolgus monkey FcγRIIa3 extracellular domain, His-tagged (cynomolgus monkey).
T1 construct: also called cyno FcγRIIa3; cynoFcgRIIa3; not shown: C-terminal His-tag
T1 chain: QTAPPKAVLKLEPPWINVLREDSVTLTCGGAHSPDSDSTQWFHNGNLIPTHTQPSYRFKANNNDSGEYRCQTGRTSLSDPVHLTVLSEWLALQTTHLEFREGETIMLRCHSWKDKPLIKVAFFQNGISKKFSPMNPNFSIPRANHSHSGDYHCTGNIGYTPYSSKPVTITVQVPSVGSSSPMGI
The experiment in a line: SPR (BIACORE), captured antibody, FcgR as analyte. For orientation: Surface plasmon resonance follows binding to a sensor surface in real time, without labels.

In assay [2] the target is T2, cynomolgus monkey FcγRIIa1 extracellular domain, His-tagged (cynomolgus monkey).
T2 construct: also called cyno FcγRIIa1; cynoFcgRIIa1; not shown: C-terminal His-tag
T2 chain: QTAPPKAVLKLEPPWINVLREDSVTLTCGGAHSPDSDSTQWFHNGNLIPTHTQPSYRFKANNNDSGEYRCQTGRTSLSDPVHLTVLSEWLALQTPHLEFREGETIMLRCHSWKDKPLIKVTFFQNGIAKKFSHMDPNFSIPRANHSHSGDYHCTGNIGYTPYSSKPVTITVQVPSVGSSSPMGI
The experiment in a line: SPR (BIACORE); KD of SG1 divided by KD of variant.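 Further: relative to parent M103205H795-SG1 carrying the SG1 human heavy chain constant region.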

Assay [3] addresses T3, cynomolgus monkey FcγRIIa2 extracellular domain, His-tagged (cynomolgus monkey).
T3 construct: also called cyno FcγRIIa2; cynoFcgRIIa2; not shown: C-terminal His-tag
T3 chain: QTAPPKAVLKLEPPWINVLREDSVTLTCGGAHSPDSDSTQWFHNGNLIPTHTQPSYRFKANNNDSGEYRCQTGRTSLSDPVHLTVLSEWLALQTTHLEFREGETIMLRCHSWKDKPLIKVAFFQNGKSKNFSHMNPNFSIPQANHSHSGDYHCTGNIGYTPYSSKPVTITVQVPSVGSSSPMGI
The experiment in a line: SPR (BIACORE); KD of SG1 divided by KD of variant.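 Further: relative to parent M103205H795-SG1 carrying the SG1 human heavy chain constant region.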

Assay [4] concerns the target T1, cynomolgus monkey FcγRIIa3 …. Description: SPR (BIACORE); KD of SG1 divided by KD of variant.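 Further: relative to parent M103205H795-SG1 carrying the SG1 human heavy chain constant region.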
For assay [5], the target named is T4, cynomolgus monkey FcγRIIb extracellular domain, His-tagged (cynomolgus monkey).
T4 construct: also called cyno FcγRIIb; cynoFcγRIIb; not shown: C-terminal His-tag
T4 chain: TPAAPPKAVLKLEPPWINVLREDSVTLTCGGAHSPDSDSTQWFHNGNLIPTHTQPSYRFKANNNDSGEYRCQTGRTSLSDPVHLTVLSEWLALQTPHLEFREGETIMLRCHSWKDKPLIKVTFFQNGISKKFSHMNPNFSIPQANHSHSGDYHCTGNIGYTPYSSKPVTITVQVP
The experiment in a line: SPR (BIACORE); KD of SG1 divided by KD of variant.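 Further: relative to parent M103205H795-SG1 carrying the SG1 human heavy chain constant region.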

The target in assay [6] is T5, cynomolgus monkey FcγRIIIaS extracellular domain, His-tagged (cynomolgus monkey, UniProt Q8SPW2 21-206 at identity 1.00)).
T5 construct: also called cyno FcγRIIIaS; cynoFcγRIIIaS; not shown: C-terminal His-tag
T5 chain: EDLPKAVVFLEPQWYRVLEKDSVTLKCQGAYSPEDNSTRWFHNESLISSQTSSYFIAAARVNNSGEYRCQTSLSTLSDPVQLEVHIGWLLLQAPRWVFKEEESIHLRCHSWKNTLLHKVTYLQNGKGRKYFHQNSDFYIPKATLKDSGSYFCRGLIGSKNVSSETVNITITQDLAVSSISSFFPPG
The experiment in a line: SPR (BIACORE); KD of SG1 divided by KD of variant.

Assay [7] addresses T6, human FcγRIIaH extracellular domain, His-tagged (human, UniProt P12318 34-217).
T6 construct: also called human FcγRIIa (type H); FcgRIIaH; not shown: C-terminal His-tag
T6 sequence: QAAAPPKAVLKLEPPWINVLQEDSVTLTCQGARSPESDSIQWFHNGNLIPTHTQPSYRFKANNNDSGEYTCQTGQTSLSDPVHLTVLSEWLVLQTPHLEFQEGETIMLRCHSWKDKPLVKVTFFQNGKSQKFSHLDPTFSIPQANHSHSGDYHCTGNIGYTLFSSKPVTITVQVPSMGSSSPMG
The experiment in a line: SPR (BIACORE); KD of SG1 divided by KD of variant.

The target in assay [8] is T7, human FcγRIIb extracellular domain, His-tagged (human, UniProt P31994 43-217).
T7 construct: also called FcgRIIb (human); not shown: C-terminal His-tag
T7 sequence: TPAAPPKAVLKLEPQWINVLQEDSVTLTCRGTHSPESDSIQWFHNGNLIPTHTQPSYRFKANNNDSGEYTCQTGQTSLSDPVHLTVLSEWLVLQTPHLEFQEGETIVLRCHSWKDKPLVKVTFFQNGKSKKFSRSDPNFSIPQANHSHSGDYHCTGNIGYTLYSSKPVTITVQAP
Description: SPR (BIACORE); KD of SG1 divided by KD of variant.

The target in assay [9] is T8, human FcγRIIIaV extracellular domain, His-tagged (human, UniProt P08637 17-208).
T8 construct: also called FcgRIIIaV; not shown: C-terminal His-tag
Description: SPR (BIACORE); KD of SG1 divided by KD of variant.

T8 sequence (P08637 17-208 F176V): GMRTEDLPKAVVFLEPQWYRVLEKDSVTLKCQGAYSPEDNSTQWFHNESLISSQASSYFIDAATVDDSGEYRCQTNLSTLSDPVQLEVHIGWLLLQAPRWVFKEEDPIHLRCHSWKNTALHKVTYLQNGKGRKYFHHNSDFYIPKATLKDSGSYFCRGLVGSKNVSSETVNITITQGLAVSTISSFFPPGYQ

B1: M103205H795-MY466/M103202L889-SK1 (antibody, human IgG1, kappa)
heavy: QVTLKESGPVLVKPTETLTLTCTVSGIDLSHDDISWVRQAPGKGLEWVGIISYAGSTYYASWAKGRLTISKDTSKNQVVLTMTNMDPVDTATYYCARGVPAYSHGGDLWGQGTLVTVSSASTKGPSVFPLAPSSKSTSGGTAALGCLVKDYFPEPVTVSWNSGALTSGVHTFPAVLQSSGLYSLSSVVTVPSSSLGTQTYICNVNHKPSNTKVDKKVEPKSCDKTHTCPPCPLPELLTGPSVFLFPPKPKDTLMISRTPEVTCVVVDVSDEDPEVKFNWYVDGVEVHNAKTKPREEQYNSTYRVVSVLTVLHQDWLNGKEYKCKVSNKALPKPIEKTISKAKGQPREPQVYTLPPSREEMTKNQVSLTCLVKGFYPSDIAVEWESNGQPENNYKTTPPVLDSDGSFFLYSKLTVDKSRWQQGNVFSCSVMHEALHNHYTQKSLSLSP
light: DIVMTQSPATLSLSPGERATLSCTSSQSVYHANWLSWFQQKPGQPPKLLIYWASTLAYGVPSRFSGSGSGTDFTLTISSLQPEDAATYYCAGGYGGGRYAFGQGTKVEIKRTVAAPSVFIFPPSDEQLKSGTASVVCLLNNFYPREAKVQWKVDNALQSGNSQESVTEQDSKDSTYSLSSTLTLSKADYEKHKVYACEVTHQGLSSPVTKSFNRGEC
notes: copies: 2 + 2
The Kd is the constant that tells how readily two partners part at equilibrium. B1 yielded a Kd in assay [1] of 4.4 µM. For the same molecule, the “KD fold (SG1 = 1)” value in assay [2] came to 1.7 fold; in [3] it was 2.3 fold; in assay [4] it was 3.9 fold; in assay [5], 3.5 fold; in assay [6], 0.2 fold; in assay [7], 4.1 fold. Besides, the “KD fold (SG1 = 1)” value turned out to be 3.3 fold in [8] and 0.3 fold in assay [9].

B2: M103205H795-MY468/M103202L889-SK1 (antibody, human IgG1, kappa)
heavy: QVTLKESGPVLVKPTETLTLTCTVSGIDLSHDDISWVRQAPGKGLEWVGIISYAGSTYYASWAKGRLTISKDTSKNQVVLTMTNMDPVDTATYYCARGVPAYSHGGDLWGQGTLVTVSSASTKGPSVFPLAPSSKSTSGGTAALGCLVKDYFPEPVTVSWNSGALTSGVHTFPAVLQSSGLYSLSSVVTVPSSSLGTQTYICNVNHKPSNTKVDKKVEPKSCDKTHTCPPCPNPELLTGPSVFLFPPKPKDTLMISRTPEVTCVVVDVSDEDPEVKFNWYVDGVEVHNAKTKPREEQYNSTYRVVSVLTVLHQDWLNGKEYKCKVSNKALPKPIEKTISKAKGQPREPQVYTLPPSREEMTKNQVSLTCLVKGFYPSDIAVEWESNGQPENNYKTTPPVLDSDGSFFLYSKLTVDKSRWQQGNVFSCSVMHEALHNHYTQKSLSLSP
light: DIVMTQSPATLSLSPGERATLSCTSSQSVYHANWLSWFQQKPGQPPKLLIYWASTLAYGVPSRFSGSGSGTDFTLTISSLQPEDAATYYCAGGYGGGRYAFGQGTKVEIKRTVAAPSVFIFPPSDEQLKSGTASVVCLLNNFYPREAKVQWKVDNALQSGNSQESVTEQDSKDSTYSLSSTLTLSKADYEKHKVYACEVTHQGLSSPVTKSFNRGEC
notes: copies: 2 + 2
Regarding B2, the affinity in assay [1], expressed as Kd, was 5.2 µM. In addition, the “KD fold (SG1 = 1)” value in assay [2] was determined as 1.1 fold; in assay [3], 2 fold; in assay [4], 3.3 fold; in assay [5], 2.8 fold; in [6], 0.2 fold; in assay [7], 2.5 fold. The “KD fold (SG1 = 1)” value turned out to be 1.8 fold in assay [8] and 0.1 fold in [9].

B3: M103205H795-MY467/M103202L889-SK1 (antibody, human IgG1, kappa)
heavy: QVTLKESGPVLVKPTETLTLTCTVSGIDLSHDDISWVRQAPGKGLEWVGIISYAGSTYYASWAKGRLTISKDTSKNQVVLTMTNMDPVDTATYYCARGVPAYSHGGDLWGQGTLVTVSSASTKGPSVFPLAPSSKSTSGGTAALGCLVKDYFPEPVTVSWNSGALTSGVHTFPAVLQSSGLYSLSSVVTVPSSSLGTQTYICNVNHKPSNTKVDKKVEPKSCDKTHTCPPCPMPELLTGPSVFLFPPKPKDTLMISRTPEVTCVVVDVSDEDPEVKFNWYVDGVEVHNAKTKPREEQYNSTYRVVSVLTVLHQDWLNGKEYKCKVSNKALPKPIEKTISKAKGQPREPQVYTLPPSREEMTKNQVSLTCLVKGFYPSDIAVEWESNGQPENNYKTTPPVLDSDGSFFLYSKLTVDKSRWQQGNVFSCSVMHEALHNHYTQKSLSLSP
light: DIVMTQSPATLSLSPGERATLSCTSSQSVYHANWLSWFQQKPGQPPKLLIYWASTLAYGVPSRFSGSGSGTDFTLTISSLQPEDAATYYCAGGYGGGRYAFGQGTKVEIKRTVAAPSVFIFPPSDEQLKSGTASVVCLLNNFYPREAKVQWKVDNALQSGNSQESVTEQDSKDSTYSLSSTLTLSKADYEKHKVYACEVTHQGLSSPVTKSFNRGEC
notes: copies: 2 + 2
Molecule B3 showed a Kd in assay [1] of 4.7 µM. The “KD fold (SG1 = 1)” value turned out to be 1.7 fold in assay [2]; 2.7 fold in assay [3]; 3.6 fold in assay [4]; 2.5 fold in assay [5]; 0.2 fold in [6]; 3.8 fold in [7]. The “KD fold (SG1 = 1)” value in assay [8] stood at 2.3 fold; in assay [9] it was 0.2 fold.

B4: M103205H795-MY469/M103202L889-SK1 (antibody, human IgG1, kappa)
heavy: QVTLKESGPVLVKPTETLTLTCTVSGIDLSHDDISWVRQAPGKGLEWVGIISYAGSTYYASWAKGRLTISKDTSKNQVVLTMTNMDPVDTATYYCARGVPAYSHGGDLWGQGTLVTVSSASTKGPSVFPLAPSSKSTSGGTAALGCLVKDYFPEPVTVSWNSGALTSGVHTFPAVLQSSGLYSLSSVVTVPSSSLGTQTYICNVNHKPSNTKVDKKVEPKSCDKTHTCPPCPPPELLTGPSVFLFPPKPKDTLMISRTPEVTCVVVDVSDEDPEVKFNWYVDGVEVHNAKTKPREEQYNSTYRVVSVLTVLHQDWLNGKEYKCKVSNKALPKPIEKTISKAKGQPREPQVYTLPPSREEMTKNQVSLTCLVKGFYPSDIAVEWESNGQPENNYKTTPPVLDSDGSFFLYSKLTVDKSRWQQGNVFSCSVMHEALHNHYTQKSLSLSP
light: DIVMTQSPATLSLSPGERATLSCTSSQSVYHANWLSWFQQKPGQPPKLLIYWASTLAYGVPSRFSGSGSGTDFTLTISSLQPEDAATYYCAGGYGGGRYAFGQGTKVEIKRTVAAPSVFIFPPSDEQLKSGTASVVCLLNNFYPREAKVQWKVDNALQSGNSQESVTEQDSKDSTYSLSSTLTLSKADYEKHKVYACEVTHQGLSSPVTKSFNRGEC
notes: copies: 2 + 2
In [1], B4 displayed a Kd of 4.9 µM. Also, the “KD fold (SG1 = 1)” value in [2] came to 1.5 fold; in assay [3], 2.4 fold; in [4], 3.5 fold; in assay [5], 3 fold; in assay [6], 0.2 fold; in [7], 3.5 fold. Moreover, the “KD fold (SG1 = 1)” value in assay [8] was found to be 1.9 fold; in assay [9], 0.1 fold.

The values above are taken from US20200317768A1 (published 2020).
